Data taken from patent US20240117054A1 (DRAGONFLY THERAPEUTICS, published 2024).

T1: human FLT3 (hFLT3) expressed on cells (human, UniProt P36888 27-993)
T1 construct: whole, on cells; One molecule for all cell lines that carry human FLT3; also called RMA-hFLT3; FLT3 on REH cells
T1 sequence (looked up): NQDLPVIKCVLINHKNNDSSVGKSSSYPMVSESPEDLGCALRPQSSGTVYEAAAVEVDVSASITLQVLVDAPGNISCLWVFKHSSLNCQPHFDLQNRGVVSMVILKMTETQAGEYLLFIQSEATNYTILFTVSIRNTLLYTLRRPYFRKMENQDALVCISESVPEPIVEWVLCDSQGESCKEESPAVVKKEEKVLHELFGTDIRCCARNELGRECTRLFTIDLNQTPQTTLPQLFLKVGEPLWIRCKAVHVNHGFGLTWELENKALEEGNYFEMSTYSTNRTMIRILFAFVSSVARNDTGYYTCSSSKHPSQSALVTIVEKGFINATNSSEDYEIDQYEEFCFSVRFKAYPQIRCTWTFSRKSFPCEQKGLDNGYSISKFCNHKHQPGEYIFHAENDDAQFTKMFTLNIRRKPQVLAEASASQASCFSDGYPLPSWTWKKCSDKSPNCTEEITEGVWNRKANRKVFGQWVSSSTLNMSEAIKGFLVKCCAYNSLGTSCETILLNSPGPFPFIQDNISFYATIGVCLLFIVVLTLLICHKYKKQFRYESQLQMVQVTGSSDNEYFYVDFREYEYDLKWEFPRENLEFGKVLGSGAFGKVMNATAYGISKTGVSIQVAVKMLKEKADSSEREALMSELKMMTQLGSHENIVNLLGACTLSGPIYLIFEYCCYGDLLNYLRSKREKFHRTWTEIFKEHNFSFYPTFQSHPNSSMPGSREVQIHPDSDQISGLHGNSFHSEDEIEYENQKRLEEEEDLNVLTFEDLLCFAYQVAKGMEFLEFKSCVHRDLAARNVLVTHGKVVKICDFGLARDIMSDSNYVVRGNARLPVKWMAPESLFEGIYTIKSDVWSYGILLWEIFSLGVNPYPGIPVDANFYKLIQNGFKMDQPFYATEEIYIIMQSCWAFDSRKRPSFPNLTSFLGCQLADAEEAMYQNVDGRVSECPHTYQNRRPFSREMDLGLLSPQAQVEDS

T2: cynomolgus monkey FLT3 (cFLT3) expressed on RMA cells (cynomolgus monkey, UniProt A0A2K5VQ48 27-993)
T2 construct: whole, on cells; also called RMA-cFLT3; cynomolgus FLT3
T2 sequence: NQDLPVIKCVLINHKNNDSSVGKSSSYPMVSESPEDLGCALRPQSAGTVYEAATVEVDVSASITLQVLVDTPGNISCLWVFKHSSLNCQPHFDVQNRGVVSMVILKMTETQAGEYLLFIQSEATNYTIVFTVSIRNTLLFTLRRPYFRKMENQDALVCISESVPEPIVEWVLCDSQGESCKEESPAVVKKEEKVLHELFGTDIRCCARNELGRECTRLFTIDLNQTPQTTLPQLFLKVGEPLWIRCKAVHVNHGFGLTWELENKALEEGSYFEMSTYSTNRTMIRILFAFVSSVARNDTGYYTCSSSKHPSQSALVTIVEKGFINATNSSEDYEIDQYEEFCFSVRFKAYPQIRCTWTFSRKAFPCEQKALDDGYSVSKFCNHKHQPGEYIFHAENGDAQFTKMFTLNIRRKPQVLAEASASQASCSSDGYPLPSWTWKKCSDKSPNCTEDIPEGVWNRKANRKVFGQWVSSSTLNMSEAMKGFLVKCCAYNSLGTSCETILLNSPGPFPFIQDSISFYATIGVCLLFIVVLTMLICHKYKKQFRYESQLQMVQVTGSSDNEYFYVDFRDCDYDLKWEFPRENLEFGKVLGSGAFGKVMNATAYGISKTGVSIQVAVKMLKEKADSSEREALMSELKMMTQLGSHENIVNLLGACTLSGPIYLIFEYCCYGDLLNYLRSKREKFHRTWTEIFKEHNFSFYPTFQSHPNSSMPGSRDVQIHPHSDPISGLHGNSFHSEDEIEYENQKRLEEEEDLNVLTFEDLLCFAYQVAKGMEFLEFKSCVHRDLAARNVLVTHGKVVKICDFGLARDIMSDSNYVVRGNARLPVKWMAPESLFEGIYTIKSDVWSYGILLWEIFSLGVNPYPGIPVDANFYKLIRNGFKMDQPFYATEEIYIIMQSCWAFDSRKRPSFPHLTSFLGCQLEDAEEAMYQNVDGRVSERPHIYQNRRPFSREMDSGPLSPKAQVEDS

T3: FLT3-T227M expressed on MOLM-13 cells (human, UniProt P36888 27-993)
T3 construct: whole, on cells; also called hFLT3-T227M; FLT3 with T227M mutation
T3 sequence (looked up): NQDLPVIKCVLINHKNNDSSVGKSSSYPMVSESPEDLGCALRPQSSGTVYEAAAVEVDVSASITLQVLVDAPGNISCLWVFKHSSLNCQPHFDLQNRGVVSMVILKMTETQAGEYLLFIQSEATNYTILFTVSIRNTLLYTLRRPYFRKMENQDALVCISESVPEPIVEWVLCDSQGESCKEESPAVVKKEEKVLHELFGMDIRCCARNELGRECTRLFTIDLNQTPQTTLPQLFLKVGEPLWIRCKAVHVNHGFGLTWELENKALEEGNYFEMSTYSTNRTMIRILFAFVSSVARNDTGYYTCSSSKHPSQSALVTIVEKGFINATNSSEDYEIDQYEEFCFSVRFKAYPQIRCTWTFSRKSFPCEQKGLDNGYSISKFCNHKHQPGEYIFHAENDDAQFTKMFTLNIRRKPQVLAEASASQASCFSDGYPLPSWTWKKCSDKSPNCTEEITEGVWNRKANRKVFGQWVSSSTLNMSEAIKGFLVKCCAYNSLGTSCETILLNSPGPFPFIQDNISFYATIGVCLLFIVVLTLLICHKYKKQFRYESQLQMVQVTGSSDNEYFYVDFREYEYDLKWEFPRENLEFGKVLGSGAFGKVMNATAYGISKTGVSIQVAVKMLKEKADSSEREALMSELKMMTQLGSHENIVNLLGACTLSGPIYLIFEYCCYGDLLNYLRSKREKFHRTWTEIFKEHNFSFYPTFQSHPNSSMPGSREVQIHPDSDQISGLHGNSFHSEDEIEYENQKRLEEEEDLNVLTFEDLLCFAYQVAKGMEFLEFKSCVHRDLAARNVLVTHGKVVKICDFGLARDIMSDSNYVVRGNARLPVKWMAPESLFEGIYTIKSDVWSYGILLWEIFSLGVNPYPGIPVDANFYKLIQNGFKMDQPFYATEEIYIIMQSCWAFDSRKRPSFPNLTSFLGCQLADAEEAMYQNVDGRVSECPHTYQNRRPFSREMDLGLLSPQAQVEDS

T4: FLT3-ITD expressed on MV4-11 cells (human, UniProt P36888 27-543)
T4 construct: whole, on cells; the ITD itself is not described; also called hFLT3-ITD; FLT3 with the ITD mutation
T4 sequence (looked up): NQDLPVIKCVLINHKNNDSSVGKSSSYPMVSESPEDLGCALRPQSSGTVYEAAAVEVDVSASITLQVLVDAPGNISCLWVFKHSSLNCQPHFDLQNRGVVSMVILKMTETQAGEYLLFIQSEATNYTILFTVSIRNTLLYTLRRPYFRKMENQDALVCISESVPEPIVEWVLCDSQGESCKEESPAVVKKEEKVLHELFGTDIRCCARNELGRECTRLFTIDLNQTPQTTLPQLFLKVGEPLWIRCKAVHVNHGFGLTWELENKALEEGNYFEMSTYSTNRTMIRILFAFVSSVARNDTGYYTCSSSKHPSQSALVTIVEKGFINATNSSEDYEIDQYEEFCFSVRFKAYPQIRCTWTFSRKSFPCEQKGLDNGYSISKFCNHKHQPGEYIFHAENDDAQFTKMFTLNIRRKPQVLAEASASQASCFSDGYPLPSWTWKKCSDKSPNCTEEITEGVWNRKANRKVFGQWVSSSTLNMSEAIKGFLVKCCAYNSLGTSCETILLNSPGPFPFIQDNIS


What was measured:
[1] = target: T1, human FLT3 (hFLT3) expressed on cells; assay: flow cytometry on REH cells, anti-human IgG secondary antibody, fold over background (FOB)
Source text: (§1) Isogenic cell lines ectopically expressing human and cynomolgus monkey FLT3 were used to assess cross-reactivity between human and cynomolgus monkey FLT3. […] cancer cell line RMA expressing hFLT3 or cFLT3 was used to assess tumor antigen binding of FLT3-targeting TriNKET and parental mAb. The human AML cell lines MOLM-13 and MV4-11 and the human ALL cell line REH were used to assess binding ability of the TriNKET or parental mAb. In particular, MOLM-13 cells and MV4-11 cells, which expressed FLT3-T227M and FLT3-ITD, respectively, were used to assess the ability of the FLT3-targeting TriNKET and parental mAb to bind mutant FLT3.
(§2) The cells were then incubated with a fluorophore conjugated anti-human IgG secondary antibody and were analyzed by flow cytometry. The mean fluorescence intensity (MFI) values were normalized to secondary antibody only controls to obtain fold over background (FOB) values.

[2] = target: T2, cynomolgus monkey FLT3 (cFLT3) …; assay: flow cytometry on RMA-cFLT3 cells, anti-human IgG secondary antibody, fold over background (FOB)
Source text: as §1, §2

[3] = target: T1, human FLT3 (hFLT3) expressed on cells; assay: flow cytometry on RMA-hFLT3 cells, anti-human IgG secondary antibody, fold over background (FOB)
Source text: as §1, §2

[4] = target: T3, FLT3-T227M expressed on MOLM-13 cells; assay: flow cytometry on MOLM-13 cells (FLT3-T227M), anti-human IgG secondary antibody, gMFI
Source text: as §1, §2

[5] = target: T4, FLT3-ITD expressed on MV4-11 cells; assay: flow cytometry on MV4-11 cells (FLT3-ITD), anti-human IgG secondary antibody, gMFI
Source text: as §1, §2

EC50 (read off the curve) [1] | EC50 (read off the curve) [2] | EC50 (read off the curve) [3] | EC50 (read off the curve) [4] | EC50 (read off the curve) [5] | Binder
~1 nM | ~0.6 nM | ~0.5 nM | ~2 nM | – | GB102 monoclonal antibody in the human IgG1 format (antibody, V domains shown, also called parental mAb) VH: QVQLVQSGAEVKKPGASVKVSCKASGYTFTRYVMHWVRQAPGQRLEWMGFINPYNDDTKYNEKFKGRVTITRDTSASTAYMELSSLRSEDTAVYYCARWRQLGSLDSWGQGTTVTVSS VL: DIVMTQSPDSLAVSLGERATINCRASESVDTYGSSFVHWYQQKPGQPPKLLIYLASNLESGVPDRFSGSGSGTDFTLTISSLQAEDVAVYYCQQNNEEPWTFGGGTKVEIK
~5 nM | ~1 nM | ~1 nM | – | ~1 nM | F3′-GB102 (bispecific antibody, human IgG1, kappa, also called FLT3-targeting TriNKET) DIVMTQSPDSLAVSLGERATINCRASESVDTYGSSFVHWYQQKPGQPPKLLIYLASNLESGVPDRFSGSGSGTDFTLTISSLQAEDVAVYYCQQNNEEPWTFGCGTKVEIKGGGGSGGGGSGGGGSGGGGSQVQLVQSGAEVKKPGASVKVSCKASGYTFTRYVMHWVRQAPGQCLEWMGFINPYNDDTKYNEKFKGRVTITRDTSASTAYMELSSLRSEDTAVYYCARWRQLGSLDSWGQGTTVTVSSGSDKTHTCPPCPAPELLGGPSVFLFPPKPKDTLMISRTPEVTCVVVDVSHEDPEVKFNWYVDGVEVHNAKTKPREEQYNSTYRVVSVLTVLHQDWLNGKEYKCKVSNKALPAPIEKTISKAKGQPREPRVYTLPPCRDELTKNQVSLTCLVKGFYPSDIAVEWESNGQPENNYKTTPPVLVSDGSFTLYSKLTVDKSRWQQGNVFSCSVMHEALHNHYTQKSLSLSPG heavy: EVQLVESGGGLVKPGGSLRLSCAASGFTFSSYSMNWVRQAPGKGLEWVSSISSSSSYIYYADSVKGRFTISRDNAKNSLYLQMNSLRAEDTAVYYCARGAPIGAAAGWFDPWGQGTLVTVSSASTKGPSVFPLAPSSKSTSGGTAALGCLVKDYFPEPVTVSWNSGALTSGVHTFPAVLQSSGLYSLSSVVTVPSSSLGTQTYICNVNHKPSNTKVDKKVEPKSCDKTHTCPPCPAPELLGGPSVFLFPPKPKDTLMISRTPEVTCVVVDVSHEDPEVKFNWYVDGVEVHNAKTKPREEQYNSTYRVVSVLTVLHQDWLNGKEYKCKVSNKALPAPIEKTISKAKGQPREPQVCTLPPSRDELTENQVSLTCLVKGFYPSDIAVEWESNGQPENNYKTTPPVLDSDGSFFLYSWLTVDKSRWQQGNVFSCSVMHEALHNHYTQKSLSLSPG light: DIQMTQSPSSVSASVGDRVTITCRASQGISSWLAWYQQKPGKAPKLLIYAASSLQSGVPSRFSGSGSGTDFTLTISSLQPEDFATYYCQQGVSFPRTFGGGTKVEIKRTVAAPSVFIFPPSDEQLKSGTASVVCLLNNFYPREAKVQWKVDNALQSGNSQESVTEQDSKDSTYSLSSTLTLSKADYEKHKVYACEVTHQGLSSPVTKSFNRGEC
